From the Immune Epitope Database (IEDB)

What was measured:
HLA-A*30:01 = assay: IEDB peptide-MHC binding, purified MHC/competitive/radioactivity; filed as Kd, often an IC50 or EC50 that approximates it; ≥ and ≤ were set here for values at or beyond the usual limits of such assays
HLA-A*02:01 = assay: IEDB peptide-MHC binding, purified MHC/competitive/fluorescence; ≥ and ≤ were set here for values at or beyond the usual limits of such assays
HLA-A*01:01 [1] = assay: IEDB peptide-MHC binding, purified MHC/competitive/radioactivity; filed as Kd, often an IC50 or EC50 that approximates it; ≥ and ≤ were set here for values at or beyond the usual limits of such assays
HLA-A*23:01 = assay: as above
HLA-A*24:02 = assay: as above
HLA-A*26:01 = assay: as above
HLA-A*29:02 = assay: as above
HLA-A*30:02 = assay: as above
HLA-A*01:01 [2] = assay: IEDB peptide-MHC binding, purified MHC/direct/fluorescence; filed as Kd, often an IC50 or EC50 that approximates it; ≥ and ≤ were set here for values at or beyond the usual limits of such assays; conditions: source organism: SARS-CoV1
HLA-B*15:01 = assay: as above; conditions: source organism: SARS-CoV1
HLA-A*03:01 = assay: IEDB peptide-MHC binding, purified MHC/competitive/radioactivity; filed as Kd, often an IC50 or EC50 that approximates it; ≥ and ≤ were set here for values at or beyond the usual limits of such assays
HLA-A*11:01 = assay: as above; conditions: source organism: Dengue virus 2 Jamaica/1409/1983
HLA-A*31:01 = assay: as above; conditions: source organism: Mammarenavirus brazilense
HLA-A*33:01 = assay: as above; conditions: source organism: Mammarenavirus brazilense
HLA-A*68:01 = assay: as above; conditions: source organism: Mammarenavirus brazilense
HLA-A*02:06 = assay: as above; conditions: source organism: Dengue virus 2 Jamaica/1409/1983
[3] = source organism: Vaccinia virus WR
[4] = source organism: Zaire ebolavirus
[5] = source organism: SARS coronavirus Tor2
[6] = source organism: Dengue virus 2 Jamaica/1409/1983
[7] = source organism: Dengue virus 3 Martinique/1243/1999
[8] = source organism: Mammarenavirus brazilense
[9] = source organism: Mammarenavirus machupoense
[10] = source organism: Dengue virus 1 Brazil/97-11/1997
[11] = source organism: Mammarenavirus lassaense

KMRDTLPAK
Kd (HLA-A*30:01; [3]): 1.58 nM

KNKESLPML
Kd (HLA-A*30:01; [3]): 18.3 nM

KSRVERVQV
Kd (HLA-A*30:01; [3]): 11.2 nM

KTMGSCIQM
Kd (HLA-A*30:01; [3]): 52.3 nM

KVHEISARG
Kd (HLA-A*30:01; [3]): 176 nM

KVNPEIDTT
IC50 (HLA-A*02:01; [4]): ≥ 120000 nM

LAAEWVLAY
Kd (HLA-A*01:01 [1]; [5]): 35.5 nM | Kd (HLA-A*23:01; [5]): ≥ 40300 nM | Kd (HLA-A*24:02; [5]): ≥ 41100 nM | Kd (HLA-A*26:01; [5]): 75.2 nM | Kd (HLA-A*29:02; [5]): 0.47 nM | Kd (HLA-A*30:02; [5]): 16.3 nM

LASLTPKAQ
IC50 (HLA-A*02:01; source organism: Variola virus): ≥ 206000 nM

LICGLRQLA
IC50 (HLA-A*02:01; [4]): 995 nM

LIGNEEYTDY
Kd (HLA-A*01:01 [1]; [6]): 1070 nM

LLEIKDKEQY
Kd (HLA-A*01:01 [1]; [5]): 936 nM | Kd (HLA-A*23:01; [5]): ≥ 70000 nM | Kd (HLA-A*24:02; [5]): 10900 nM | Kd (HLA-A*26:01; [5]): ≥ 82800 nM | Kd (HLA-A*29:02; [5]): 3530 nM | Kd (HLA-A*30:02; [5]): 1270 nM

LLNLSGVNN
IC50 (HLA-A*02:01; [4]): ≥ 167000 nM

LSRKTFDSEY
Kd (HLA-A*01:01 [1]; [6]): 1820 nM | Kd (HLA-A*30:02; [6]): 627 nM

LWMAEIPLQW
Kd (HLA-A*23:01; [7]): 13.7 nM | Kd (HLA-A*24:02; [7]): 38.6 nM

LYALITEQF
Kd (HLA-A*23:01; [8]): 2.79 nM | Kd (HLA-A*24:02; [8]): 16.8 nM | Kd (HLA-A*29:02; [8]): 731 nM

LYIAENGEL
Kd (HLA-A*23:01; [8]): 247 nM | Kd (HLA-A*24:02; [8]): 1680 nM | Kd (HLA-A*29:02; [8]): ≥ 20700 nM

MPLGVVTNS
IC50 (HLA-A*02:01; source organism: Sudan ebolavirus): 13000 nM

MTDDIGMGVT
Kd (HLA-A*01:01 [1]; [6]): 1130 nM

NQDLNGNWY
Kd (HLA-A*01:01 [2]): 282 nM | Kd (HLA-B*15:01): 15300 nM | Kd (HLA-A*23:01; [5]): ≥ 77800 nM | Kd (HLA-A*24:02; [5]): ≥ 77600 nM | Kd (HLA-A*26:01; [5]): ≥ 35000 nM | Kd (HLA-A*29:02; [5]): 854 nM | Kd (HLA-A*30:02; [5]): 2710 nM

NYPLWSQSY
Kd (HLA-A*24:02; source organism: Homo sapiens): 363 nM

QDQDHTQEA
IC50 (HLA-A*02:01; [4]): ≥ 321000 nM

RAEVSLHEV
Kd (HLA-A*01:01 [1]; [9]): ≥ 66200 nM | Kd (HLA-A*23:01; [9]): ≥ 77700 nM | Kd (HLA-A*24:02; [9]): ≥ 77500 nM | Kd (HLA-A*26:01; [9]): ≥ 77900 nM | Kd (HLA-A*29:02; [9]): ≥ 78900 nM | Kd (HLA-A*30:02; [9]): ≥ 41200 nM

RFLAIPPTA
Kd (HLA-A*30:01; [10]): 127 nM

RFLYIIKLVF
Kd (HLA-A*01:01 [1]; [5]): 1060 nM | Kd (HLA-A*23:01; [5]): 0.0321 nM | Kd (HLA-A*24:02; [5]): 13.3 nM | Kd (HLA-A*26:01; [5]): 16600 nM | Kd (HLA-A*29:02; [5]): 1050 nM | Kd (HLA-A*30:02; [5]): 1190 nM

RLGPTLMCL
IC50 (HLA-A*02:01; source organism: Homo sapiens): 1780 nM

RSEELSFTV
IC50 (HLA-A*02:01; [4]): 2380 nM

RTRVGTKHA
Kd (HLA-A*30:01; [6]): 0.02 nM

RTTWSIHAK
Kd (HLA-A*03:01; [6]): 6.99 nM | Kd (HLA-A*30:01; [6]): 80.9 nM

RVRYLTRNY
Kd (HLA-A*30:01; [3]): 5.62 nM

RVSTGSQLA
Kd (HLA-A*30:01; [10]): 81.3 nM

RVSTVSQLA
Kd (HLA-A*30:01; source organism: Dengue virus 1 Nauru/West Pac/1974): 355 nM

SFGCKPLTMF
Kd (HLA-A*23:01; [10]): 103 nM

SILASSLLK
Kd (HLA-A*03:01; [6]): 13.8 nM | Kd (HLA-A*11:01): 11 nM | Kd (HLA-A*30:01; [6]): 190 nM

SLNITTLRAV
Kd (HLA-A*01:01 [1]; [11]): ≥ 70400 nM | Kd (HLA-A*23:01; [11]): ≥ 70000 nM | Kd (HLA-A*24:02; [11]): ≥ 70300 nM | Kd (HLA-A*26:01; [11]): ≥ 69700 nM | Kd (HLA-A*29:02; [11]): ≥ 71400 nM | Kd (HLA-A*30:02; [11]): 1700 nM

SSQRDTILK
Kd (HLA-A*03:01; [8]): 270 nM | Kd (HLA-A*30:01; [8]): 46.5 nM | Kd (HLA-A*31:01): 2570 nM | Kd (HLA-A*33:01): ≥ 24200 nM | Kd (HLA-A*68:01): 388 nM

STIPETILEL
Kd (HLA-A*02:06): 79.6 nM | Kd (HLA-A*26:01; [6]): 831 nM

SVIDCNTCV
IC50 (HLA-A*02:01; source organism: Hepatitis C virus genotype 1): 5000 nM

TLILAGVSLL
Kd (HLA-A*26:01; [7]): 6690 nM

TSSGDATTAY
Kd (HLA-A*01:01 [1]; [5]): 63.8 nM | Kd (HLA-A*23:01; [5]): ≥ 70000 nM | Kd (HLA-A*24:02; [5]): ≥ 70300 nM | Kd (HLA-A*26:01; [5]): 646 nM | Kd (HLA-A*29:02; [5]): 98.8 nM | Kd (HLA-A*30:02; [5]): 606 nM

TTIAVSMAN
Kd (HLA-A*26:01; [6]): 5160 nM

TWLVHKQWFL
Kd (HLA-A*23:01; source organism: Dengue virus 4 Philippines/H241/1956): 124 nM

TWSIHAHHQW
Kd (HLA-A*23:01; [10]): 950 nM | Kd (HLA-A*24:02; [10]): 1080 nM

TYHPNCINCL
Kd (HLA-A*01:01 [1]; [5]): ≥ 70400 nM | Kd (HLA-A*23:01; [5]): 1150 nM | Kd (HLA-A*24:02; [5]): 663 nM | Kd (HLA-A*26:01; [5]): ≥ 69700 nM | Kd (HLA-A*29:02; [5]): 5580 nM | Kd (HLA-A*30:02; [5]): ≥ 37200 nM

VDINLIPLI
Kd (HLA-A*01:01 [1]; [11]): 19500 nM | Kd (HLA-A*23:01; [11]): 1610 nM | Kd (HLA-A*24:02; [11]): 2950 nM | Kd (HLA-A*26:01; [11]): ≥ 77900 nM | Kd (HLA-A*29:02; [11]): ≥ 78900 nM | Kd (HLA-A*30:02; [11]): ≥ 76900 nM

VDTRTPRPMP
Kd (HLA-A*30:01; source organism: Dengue virus 3 Sri Lanka/1266/2000): 415 nM

VTDTNKFAHY
Kd (HLA-A*01:01 [1]; source organism: Variola virus): 13.6 nM | Kd (HLA-A*23:01; source organism: Variola virus): ≥ 50200 nM | Kd (HLA-A*24:02; source organism: Variola virus): ≥ 70300 nM | Kd (HLA-A*26:01; source organism: Variola virus): ≥ 69700 nM | Kd (HLA-A*29:02; source organism: Variola virus): ≥ 25500 nM | Kd (HLA-A*30:02; source organism: Variola virus): 1290 nM

VYALCTLLHL
Kd (HLA-A*01:01 [1]; [5]): 19900 nM | Kd (HLA-A*23:01; [5]): 39.8 nM | Kd (HLA-A*24:02; [5]): 76.7 nM | Kd (HLA-A*26:01; [5]): 14000 nM | Kd (HLA-A*29:02; [5]): 5570 nM | Kd (HLA-A*30:02; [5]): ≥ 100000 nM

VYKEGTFHTM
Kd (HLA-A*24:02; [6]): 14.7 nM

YMDDRDINP
IC50 (HLA-A*02:01; source organism: Vaccinia virus): 27100 nM
